Test results taken from the supplement of paper PMC12667976.
± gives the standard error.

B1: library; numbered along this chain (parent)
chain: MATDAALRRLLRLHRTEIAVAVDSAFPLLHALADHDVVPEDKFQETLHLKEKEGCPQAFHALLSWLLTQDSTAILDFWRVLFKDYNLERYGRLQPILDSFPKDVDLSQPRKGRKPPAVPKALVPPPRLPTKRKASEEARAAAPAALTPRGTASPGSQLKAKPPKKPESSAEQQRLPLGNGIQTMSASVQRAVAMSSGDVPGARGAVEGILIQQVFESGGSKKCIQVGGEFYTPSKFEDSGSGKNKARSSSGPKPLVRAKGAQGAAPGGGEARLGQQGSVPAPLALPSDPQLHQKNEDECAVCRDGGELICCDGCPRAFHLACLSPPLREIPSGTWRCSSCLQATVQEVQPRAEEPRPQEPPVETPLPPGLRSAGEEVRGPPGEPLAGMDTTLVYKHLPAPPSAAPLPGLDSSALHPLLCVGPEGQQNLAPGARCGVCGDGTDVLRCTHCAAAFHWRCHFPAGTSRPGTGLRCRSCSGDVTPAPVEGVLAPSPARLAPGPAKDDTASHEPALHRDDLESLLSEHTFDGILQWAIQSMARPAAPFPS

Variants of: B1
Experiment: AIRE transcriptional activation functional score (insulin promoter-GFP; nonsense median 0, synonymous median 1) (normalised score); higher = higher AIRE activity (more reporter activation)
Settings: with insulin promoter-GFP reporter in HEK293
Experimental: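 Deep mutational scan of full-length human AIRE (codon-optimized cDNA, DT-POPCode NNN libraries over three regions) integrated at a Bxb1 landing pad in HEK293 cells carrying an insulin core promoter-GFP reporter at a Flp-In site. Cells were sorted for the top 10% GFP about 14 days after transfection. Variant frequency log-ratios (select vs non-select, TileSeq) were rescaled so that the nonsense median is 0 and the synonymous median is 1, then averaged over biological replicates.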

AIRE transcriptional activation functional score, by site and new letter:
I209: L 0.758 ± 0.24, Y 0.98 ± 0.43, N 0.657 ± 0.3, M 0.79 ± 0.098, P 0.35 ± 0.05, K 0.159 ± 0.16, C -0.0153 ± 0.21, G 0.579 ± 0.18, T 0.1 ± 0.39, F 0.905 ± 0.16, D 0.64 ± 0.12, R 0.917 ± 0.066, W 0.784 ± 0.11, V 0.66 ± 0.12, A 0.165 ± 0.097, S 0.203 ± 0.18, E 0.5 ± 0.23
I211: E -0.399 ± 0.12, V 1.15 ± 0.18, M 0.504 ± 0.89, D 0.837 ± 0.1, K 0.0368 ± 0.087, C 0.481 ± 0.047, W 0.83 ± 0.065, Y 1.04 ± 0.15, R 0.0828 ± 0.12, S 0.773 ± 0.41, L 0.428 ± 0.43, A -0.0822 ± 0.079, F 0.181 ± 0.26, P -0.156 ± 0.096, G 0.694 ± 0.11
S196: P 0.792 ± 0.17, V 1.27 ± 0.15, D 0.944 ± 0.13, I 0.678 ± 0.17, L 0.512 ± 0.15, R 1.16 ± 0.17, N 0.962 ± 0.096, G 0.938 ± 0.23, C 1.24 ± 0.029, W 0.394 ± 0.073, Q 1.11 ± 0.19, M 0.982 ± 0.072, T 0.82 ± 0.29, F 0.117 ± 0.21, E 1.06 ± 0.28, K 0.809 ± 0.15, A 0.621 ± 0.19, Y 0.776 ± 0.11, H 1.01 ± 0.3
G204: C 0.575 ± 0.088, N 0.413 ± 0.31, A 1.42 ± 0.21, R 1.32 ± 0.17, E 0.847 ± 0.05, L 0.339 ± 0.34, Y 0.0127 ± 0.5, Q 0.897 ± 0.17, P 1.08 ± 0.32, W 0.133 ± 0.075, F -0.0648 ± 0.27, D 0.621 ± 0.36, H 1.43 ± 0.35, T 1 ± 0.53, K 0.976 ± 0.28, I 0.113 ± 0.17, V 0.123 ± 0.41, S 0.807 ± 0.19
V206: W 0.352 ± 0.03, L 1.1 ± 0.28, M 0.51 ± 0.084, R 0.478 ± 0.33, H 0.927 ± 0.24, D 0.39 ± 0.25, N 0.529 ± 0.24, S 0.691 ± 0.27, F 0.751 ± 0.04, C 0.542 ± 0.22, P 0.762 ± 0.22, E 0.273 ± 0.073, G 0.631 ± 0.19, A 0.817 ± 0.31, K 0.691 ± 0.28, I 1.26 ± 0.28, Q 0.0809 ± 0.14, Y 0.936 ± 0.25, T 0.68 ± 0.2
G201: F 1.02 ± 0.2, W 0.489 ± 0.033, K 0.778 ± 0.27, Q 1.05 ± 0.17, R 0.837 ± 0.16, T 0.924 ± 0.23, C 1.03 ± 0.031, H 1.02 ± 0.23, S 0.809 ± 0.35, P 0.598 ± 0.15, V 0.941 ± 0.22, L 1.32 ± 0.22, N 1.01 ± 0.12, A 0.802 ± 0.15, I 1.23 ± 0.22, D 0.481 ± 0.047, M 1.67 ± 0.086, Y 1.17 ± 0.025, E 0.791 ± 0.087
D198: Y 0.99 ± 0.059, V 0.978 ± 0.15, W -0.417 ± 0.22, F 0.583 ± 0.26, H 0.856 ± 0.32, N 1.09 ± 0.14, E 1.2 ± 0.13, G 1.08 ± 0.24, I 0.948 ± 0.15, S 1.19 ± 0.26, T 1.51 ± 0.21, C 0.704 ± 0.16, M 1.02 ± 0.086, R 0.663 ± 0.23, K 0.684 ± 0.19, A 1.03 ± 0.37, P 0.58 ± 0.15, L 0.549 ± 0.26, Q 0.627 ± 0.15
E207: W -0.268 ± 0.039, S 0.372 ± 0.32, Y 0.0192 ± 0.34, I 0.19 ± 0.4, R 0.167 ± 0.16, C 0.532 ± 0.32, Q 0.672 ± 0.052, M -0.394 ± 0.12, F 0.67 ± 0.11, L 0.143 ± 0.19, A -0.0187 ± 0.22, K 0.169 ± 0.094, G 1.11 ± 0.21, H 0.756 ± 0.28, P 0.476 ± 0.2, D 0.788 ± 0.12, N 0.371 ± 0.19, T 0.3 ± 0.44, V -0.0618 ± 0.09
A205: C 1 ± 0.082, G 0.764 ± 0.2, Q 0.529 ± 0.048, T 1.19 ± 0.24, K 1.17 ± 0.11, W -0.461 ± 0.063, I -0.0126 ± 0.15, L 0.428 ± 0.34, Y 0.153 ± 0.56, R 0.318 ± 0.23, H 1.58 ± 0.18, M -0.0564 ± 0.17, S 1.09 ± 0.23, D 0.746 ± 0.27, E 0.647 ± 0.071, F 0.213 ± 0.12, V 0.34 ± 0.11, N 0.648 ± 0.55, P 0.728 ± 0.16
G208: T 0.433 ± 0.44, N 0.00613 ± 0.11, A 0.173 ± 0.2, L 0.332 ± 0.35, D 0.296 ± 0.12, W 0.199 ± 0.079, H -0.0252 ± 0.11, Y -0.0457 ± 0.088, C 0.43 ± 0.077, V 0.173 ± 0.17, Q 1.23 ± 0.12, K 0.899 ± 0.23, F -0.178 ± 0.25, S 0.651 ± 0.2, M 0.171 ± 0.1, P 0.201 ± 0.22, E 0.502 ± 0.1, I -0.141 ± 0.15, R 0.0966 ± 0.19
R203: I 1.2 ± 0.34, S 0.794 ± 0.14, N 0.0951 ± 0.061, E -0.0204 ± 0.28, L 1.1 ± 0.35, C 1.82 ± 0.066, T 0.744 ± 0.16, F 0.572 ± 0.21, Y 0.581 ± 0.13, Q 1.13 ± 0.046, G 0.547 ± 0.25, K 0.243 ± 0.17, P 1.03 ± 0.2, H 0.141 ± 0.1, A 1.19 ± 0.18, W 0.289 ± 0.037, V 1.57 ± 0.24
L210: E -0.0363 ± 0.075, H 0.71 ± 0.062, V 0.768 ± 0.24, M 0.6 ± 0.11, R 0.504 ± 0.38, I 0.93 ± 0.09, Q 0.0497 ± 0.33, W 0.57 ± 0.062, C 0.0167 ± 0.071, A 0.581 ± 0.49, F 1.01 ± 0.14, P 0.65 ± 0.069, G 0.615 ± 0.35, S 0.327 ± 0.13, Y 0.854 ± 1.2
G197: F 0.852 ± 0.32, L 1.06 ± 0.39, R 1.01 ± 0.3, N 1.26 ± 0.45, I 1.09 ± 0.18, T 0.444 ± 0.2, P 1.23 ± 0.3, S 1.12 ± 0.23, D 0.624 ± 0.1, Q 0.484 ± 0.34, C 1.17 ± 0.069, K 0.734 ± 0.044, Y 0.74 ± 0.054, V 1.14 ± 0.14, A 0.912 ± 0.25, H 0.619 ± 0.079, M 0.448 ± 0.058, W 0.323 ± 0.063, E 0.192 ± 0.079
P200: Q 1.18 ± 0.25, K 0.571 ± 0.29, V 0.795 ± 0.26, M 1.52 ± 0.087, T 0.911 ± 0.43, G 0.879 ± 0.49, C 1.43 ± 0.034, L 1.12 ± 0.2, A 0.713 ± 0.27, S 1.06 ± 0.18, Y 0.0754 ± 0.17, D 0.545 ± 0.11, R 0.99 ± 0.34, N 1.12 ± 0.082, F 0.777 ± 0.045, H 1.08 ± 0.036, I 0.675 ± 0.44
Q212: P 0.358 ± 0.29, E 0.507 ± 0.2, I -0.568 ± 0.044, A -0.0175 ± 0.1, H 1.68 ± 0.18, L -0.00712 ± 0.26, C 1.01 ± 0.12, D -0.139 ± 0.13, T 0.447 ± 0.065, R 1.09 ± 0.32, G 0.371 ± 0.2, F 0.392 ± 0.063, V -0.424 ± 0.34, S 1.14 ± 0.32, K 1.04 ± 0.026, W -0.0246 ± 0.17
Q213: F -0.348 ± 0.053, G 0.977 ± 0.42, K 1.02 ± 0.019, H 1.15 ± 0.16, E 0.718 ± 0.36, I -0.822 ± 0.11, A 0.437 ± 0.074, L 0.173 ± 0.27, C 0.354 ± 0.19, M -0.306 ± 0.13
A202: W 0.488 ± 0.049, L 0.939 ± 0.17, P 0.867 ± 0.21, S 0.848 ± 0.25, R 1.08 ± 0.33, I 0.93 ± 0.25, F 0.397 ± 0.12, C 1.39 ± 0.17, N 1.59 ± 0.25, G 0.818 ± 0.18, Q 0.415 ± 0.33, V 1.11 ± 0.082, K 0.112 ± 0.15, D 0.687 ± 0.19, Y 1.13 ± 0.13, M 1.19 ± 0.086, T 0.777 ± 0.24, E 0.791 ± 0.25, H 1 ± 0.39
V199: D 0.863 ± 0.13, R 0.735 ± 0.3, M 1.18 ± 0.14, C 0.807 ± 0.35, H 0.599 ± 0.63, K 0.754 ± 0.12, F 1.24 ± 0.24, N 0.886 ± 0.05, Q 0.755 ± 0.36, I 1.37 ± 0.24, L 0.982 ± 0.37, Y 1.4 ± 0.091, G 1.09 ± 0.3, E 0.905 ± 0.22, W 0.623 ± 0.032, P 0.723 ± 0.5, T 0.462 ± 0.32, S 0.671 ± 0.35, A 0.731 ± 0.43
S195: F 0.0295 ± 0.044, P 0.83 ± 0.26, E 0.862 ± 0.12, D 0.8 ± 0.11, Q 0.659 ± 0.17, Y 0.427 ± 0.11, V 0.475 ± 0.15, N 0.649 ± 0.43, C 0.945 ± 0.052, T 1.31 ± 0.091, L 0.116 ± 0.12, A 1.31 ± 0.2, R 1.13 ± 0.14, I 0.0828 ± 0.16, H 0.996 ± 0.13, G 0.859 ± 0.19, W -0.0899 ± 0.062, K 0.873 ± 0.23, M 0.346 ± 0.035
